Data reported in patent US10640556B2, “Anti amphiregulin antibodies, compositions comprising same and uses thereof” (Yeda Research and Development Co. Ltd., priority 2015, dated 2020).

T1: human AREG (Homo sapiens, UniProt P15514)
T1 sequence (P15514 101-198 limits assumed): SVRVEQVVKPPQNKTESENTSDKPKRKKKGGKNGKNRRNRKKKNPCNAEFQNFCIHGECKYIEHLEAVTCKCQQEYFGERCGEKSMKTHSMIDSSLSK

B1: AR30: anti-AREG monoclonal antibody; heavy chain SEQ ID NO: 2, light chain SEQ ID NO: 16 (antibody, V domains shown)
VH: EVQLQQSGAELVRSGASVKLSCTASGFNIKDSYMHWVKQRPEQGLEWIGWVDPDNGDTEYAPEFQGRATLTADTFSSTAYLQLTSLTSEDTAVYYCNAPSTYGHYGFAYWGQGTLVTVSA
VL: DIVMTQAAPSVPVTPGESVSISCRSSKSLLHSNGKAYLYWFLQRPGQSPQLLIYRMSNLASGVPDRFSGSGSGTAFTLRISRVEAEDVGVYYCMQHLEYPLTFGAGTKLELKR
modifications: AR30 heavy chain (IgG) complete amino acids coding sequence; AR30 light chain (kappa) complete amino acids coding sequence
B2: AR558: anti-AREG monoclonal antibody from AREG knockout mice; heavy chain SEQ ID NO: 30, light chain SEQ ID NO: 46 (antibody, V domains shown)
VH: EVQLQQSGAELVKPGASVKLSCTASGFNIKDTYMHWVKQRPEQGLEWIGRIDPANRSTKYDPKFQGKATITADTSSNTADLHLSSLTSEDTAVYYCARLYGDSVWYFDVWGAGTTVTVSSAKT
VL: QIVLTQSPAILSASPGEKVTMTCRAGSSVNYIHWYQQKPGSSPKPWIYATSNLASGVPARFSGSGSGTSYSLTISRVEAEDAATYYCQQWSGYPPMLTFGAGTKLELKR
modifications: AR558 heavy chain IgG complete amino acids coding sequence; AR558 light chain (kappa) complete amino acids coding sequence

Legend:
[1] = biological target: T2, EGFR (Homo sapiens, UniProt P00533); experiment: Receptor downregulation assay in MCAS cells; format: cell-based; design: endogenous in cells; host or cells: MCAS, MLS, H358, A549; conditions: ligand 10 ng/ml
Experimental: (§1) The cells were later washed and lysed, and the associated radioactivity was determined. […] The cells were later washed and lysed in 1 N NaOH. Cell-associated radioactivity was determined. […] Washed immunocomplexes, along with whole extracts, were immunoblotted with the indicated antibodies.
At the end of the incubation period, the cells were placed on ice, washed with ice cold medium and subjected to mild acid wash (0.2 M Na-acetate buffer, pH 4.5, and 0.5 M NaCl) for 2 minutes, followed by 2 washes in ice cold medium. […] Finally, cells were lysed in 1 N NaOH, and their radioactivity was determined.

[2] = biological target: T2, EGFR; experiment: Ligand-induced receptor ubiquitination assay (MCAS, MLS, H358, A549 cells); format: cell-based; design: endogenous in cells; host or cells: MCAS, MLS, H358, A549; conditions: 10 minutes, ligand 100 ng/mL; MCAS, MLS, H358, A549 cells
Experimental: as §1
For determination of ligand-induced receptor ubiquitination, cells were extracted in lysis buffer (50 mM HEPES pH 7.5, 150 mM NaCl, 10% glycerol, 1% Triton X-100, 1 mM EDTA, 1 mM EGTA, 10 mM NaF and 30 mM 3-glycerol phosphate) with freshly added 0.2 mM Na3VO4, a protease inhibitor cocktail and 2 mM N-ethylmaleimide (NEM). Twenty μL of protein G agarose beads and 1 μg of antibody were added to 500 μg of protein lysate. After a 2 hour incubation at 4° C., the immunoprecipitates were collected by centrifugation at 14,000 rpm at 4° C. for 1 minute. The supernatant was discarded and the pellet was washed thrice, prior to electrophoresis.

[3] = biological target: T1, human AREG; experiment: Plasmon resonance and immunoblotting of EGF-family ligands with AR30; format: binding
Experimental: FIGS. 6A-6F illustrate AR30, an anti-AREG monoclonal antibody, that inhibits auto-phosphorylation of EGFR. FIG. 6A is a photograph of a Coomassie blue staining of an acrylamide gel showing a purified fraction of AREG isolated from bacteria and purified on a NiNTA column. The molecular weight marker lane indicates a 15 kilodalton band; FIG. 6B, cells were seeded in a 24 well plate, washed and incubated with increasing concentrations of the purified TRX-AREG fusion protein (8.5, 85, 850, 8500 ng/ml). […]
SPR was performed on a BIAcore 3000 instrument (BIAcore, Uppsala, Sweden). […] The net signal was obtained by subtracting the blank signal (plain dextran matrix) from the signal recorded from the immobilized surface. The association phase for analyte binding to all ligands was followed for 4 minutes, and dissociation phases were monitored for 3 minutes. […] The response was monitored as a function of time (sensorgram). […]
To functionally characterize a selected anti-AREG mAb, its specificity was tested using an Enzyme-Linked Immunosorbent Assay (ELISA) assay covered with different ligands. […] The AR30 affinity to the different ligand was assessed by Surface plasmon resonance (SPR).

[4] = test system: Cal-27 human head and neck cancer cells; experiment: Cal-27 head and neck tumor xenograft in nude mice; format: in vivo; conditions: Cal-27 tumors, 300 μg per injection intraperitoneally twice a week
Experimental: Female nude mice were inoculated subcutaneously with Cal-27 human head and neck cancer cells (2×10^6). Once tumors became palpable (5-7 days) mice were randomized and intraperitoneally injected with saline (Control), or with anti-AR mAbs: AR30, AR37 or AR558 (each at 300 μg per injection). Mice were treated with mAbs twice a week and tumor volume was followed. Shown are averages and SD values from at least 5 mice per group.
To test the ability of anti-AREG antibodies to reduce growth of human tumor cells implanted in immunocompromised mice, Cal 27 tumor cells were used which were inoculated subcutaneously and randomized for treatment after tumors became palpable. […] Furthermore, studies testing pairs of two mAbs illustrate their enhanced anti-tumor activities (data not shown), this can be attributed to the fact that the mAbs bind to distinct antigenic determinants of amphiregulin.

[5] = test system: MCF10A cells; experiment: MTS proliferation assay of MCF10A cells; format: cell-based, human; conditions: 72 h, absence or presence of AREG, relatively high mAb concentrations
Experimental: Proliferation assays using MTS were performed on MCF10A cells (1,000 cells per well). C ells were plated on the day before and treated for 72 h with the indicated mAbs (1, 5, 10, 20 or 50 ug/mL). Increasing concentrations of the indicated mAbs (either alone or in combination with AREG) were used in medium supplemented with 1% serum and AREG (either at 10 or 100 ng/mL).

[6] = test system: MLS ovarian cancer cells; experiment: MLS ovarian tumor xenograft in nude mice; format: in vivo; conditions: MLS tumors
Experimental: FIG. 7A, female nude mice (6 weeks old) were inoculated subcutaneously with MLS ovarian cancer cells (2×10^6 per animal). Once tumors became palpable, mice were randomized into two groups. Eleven mice were injected intraperitoneally with an anti-AREG mAb (AR30; 200 μg/mouse; twice a week, on days: 8, 11, 14, 17, and 21). The control group also included 11 mice. Shown are means±S.D. values; FIG. 7B, female nude mice (6 weeks old) were inoculated subcutaneously with MLS ovarian cancer cells (2×10^6 per animal). Once tumors became palpable, mice were randomized into four groups. One group (8 mice) was injected intraperitoneally with the AR30 mAb (100 μg/mouse twice a week, on days: 8, 14, 17, 21, 24 and 28). Another group (8 mice) was treated with cisplatin (5 mg/kg; on days 8 and 21). The fourth group was treated with a combination of mAb AR30 and cisplatin. The control group included 12 mice; and FIG. 7C, the indicated MLS tumors were excised, and their average weights determined. Representative tumors were photographed.
All animal procedures were approved by the Weizmann Institute of Science's review board. Female athymic NCr-nude mice (6 weeks old) were inoculated subcutaneously with 2×10^6 human ovarian MLS cancer cells. Once tumors became palpable (5-7 days), the mice were randomized into groups and injected intraperitoneally at the indicated time points with the indicated monoclonal antibodies, chemotherapy or the combination. Tumor volumes were monitored twice a week, and body weights were measured once a week.

[7] = test system: EGFR; experiment: AREG-induced EGFR phosphorylation in HeLa cells (immunoblot); format: cell-based, human; conditions: for AREG-induced phosphorylation of EGFR: AREG 100 ng/ml, mAb 0.1-50 μg/ml, FIG. 10A
Experimental: FIGS. 6A-6F illustrate AR30, an anti-AREG monoclonal antibody, that inhibits auto-phosphorylation of EGFR. FIG. 6A is a photograph of a Coomassie blue staining of an acrylamide gel showing a purified fraction of AREG isolated from bacteria and purified on a NiNTA column. The molecular weight marker lane indicates a 15 kilodalton band; FIG. 6B, cells were seeded in a 24 well plate, washed and incubated with increasing concentrations of the purified TRX-AREG fusion protein (8.5, 85, 850, 8500 ng/ml). […] Following a 10-min long incubation, the cells were lysed and cleared extracts immunoblotted (IB) with an anti-phosphotyrosine antibody (PY-99); FIG. 6C, 96 well plates were coated with the indicated ligands (0.1 μg/ml), and then incubated for 3 hours with three different mAbs specific to AREG. Thereafter, wells were incubated for two hours with an anti-mouse antibody conjugated to HRP, followed by a 30 minutes incubation with ATBS. […] Serum from non-immunized mice was used as a negative control; FIG. 6E, HeLa cells were pre-incubated with (or without) mAb AR30 (20 μg/mL) and increasing concentrations of AREG. Thereafter, whole cell lysates were immunoblotted (IB) using an antibody specific to the phosphorylated form of EGFR (tyrosine 1068) or an antibody to EGFR; and FIG. 6F, HeLa cells were incubated with (or without) AREG (100 ng/mL) in the presence of increasing concentrations of mAb AR30 (5, 10, 20 and 50 μg/mL). Thereafter, cells were lysed and cleared extracts immunoblotted (IB) using the indicated antibodies.
FIG. 10A illustrates that anti-AREG mAbs inhibit ligand-induced activation of EGFR. HeLa cells were incubated with (or without) AREG (100 ng/ml) in the presence of increasing concentrations of mAb AR30, mAb AR 37 or mAb AR558 (0.1, 0.2, 0.5, 0.75, 1.5, 3.5, 6.25, 12.5, 25 and 50 μg/ml). Thereafter, cells were lysed and cleared extracts immunoblotted (IB) using the indicated antibodies, including an antibody specific to the phosphorylated (active) for of EGFR (pEGFR).

[8] = biological target: T1, human AREG; experiment: Antigenic determinant comparison of anti-AREG mAbs; format: binding; conditions: data not shown

Row | EGFR downregulation [1] | ubiquitination of EGFR [2] | binding of AR30 with human AREG [3] | Molecule | recognition of other EGFR ligands [3] | tumor growth [4] | inhibition of proliferation [5] | tumor growth ([6]; AR30 100 μg/mouse twice a week, cisplatin 5 mg/kg, FIG. 7B) | tumor growth ([6]; antibodies injected into the peritoneum, six weeks, data not shown) | anti-tumor effect compared with cetuximab ([6]; six weeks, data not shown) | effect of AREG on receptor phosphorylation ([7]; AR30 5-50 μg/mL, FIGS. 6E-6F) | AREG-induced phosphorylation of EGFR [7] | downstream signaling to ERK (phosphorylated ERK) ([7]; data not shown) | antigenic determinant targeted [8]
1 | 70-75% | strong ubiquitination | – | TGF-alpha: transforming growth factor alpha, high-affinity EGFR ligand | – | – | – | – | – | – | – | – | – | –
2 | – | – | high affinity binding | B1 | recognized no other EGFR ligand, except for the human form of HB-EGF | comparably inhibit tumor growth | Moderate inhibition | only mildly inhibited | partly inhibited tumor growth | at least as effective as cetuximab | only partially reduced | low concentrations of the antibodies were sufficient for blocking | insufficient for blocking downstream signaling to ERK | engages a different determinant of human AREG
3 | – | – | – | B2 | – | exceeded the activity of either antibody | Moderate inhibition | – | – | – | – | low concentrations of the antibodies were sufficient for blocking | – | engages a different determinant of human AREG
